The results in this text go back to US20230136228A1 (LAMKAP BIO ALPHA, published 2023).

Test [1] deals with T1, human CD3ε (human, UniProt P07766 23-207).
T1 construct: whole, on cells; Present on cells as part of the CD3/TCR complex; also called CD3 epsilon
The experiment in a line: flow cytometry, HUT-78 cells. For orientation: Flow cytometry measures light scatter and fluorescence of single cells or particles in a stream.

In a further test the target is T2, human CEACAM4 (human, UniProt O75871 36-244).
T2 construct: whole, on cells
T2 sequence (looked up): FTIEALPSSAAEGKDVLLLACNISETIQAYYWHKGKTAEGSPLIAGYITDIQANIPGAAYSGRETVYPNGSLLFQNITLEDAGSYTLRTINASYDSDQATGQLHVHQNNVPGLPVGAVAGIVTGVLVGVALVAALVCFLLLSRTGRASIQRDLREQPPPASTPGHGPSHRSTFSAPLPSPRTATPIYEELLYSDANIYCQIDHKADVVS
The experiment in a line: flow cytometry, transfected PEAK cells. From the text:
(§1) Vectors encoding the full-length version of human CEACAM 1, 3, 4, 5, 6, 7, 8, 18, 19, 20 and […] are used to express these proteins at the surface of PEAK and/or CHO cells as described in Example 1. Similarly, vectors encoding the full-length version of cyno CEACAM 5 and 6 are also used to express these proteins at the surface of PEAK and/or CHO cells. Non-transfected PEAK and/or CHO cells are used as negative control. Cells are harvested, counted, checked for viability and resuspended at 3×10⁶ cells/ml in FACS buffer (PBS 2% BSA, 0.1% NaN₃). 100 μl of the cell suspension are distributed in V-bottom 96-well plates (3×10⁵ cells/well). The supernatant is removed by centrifugation 3 minutes at 4° C., 1300 rpm and the cells incubated for 15 minutes at 4° C. with increasing concentrations of the antibody according to the invention. The antibodies carrying the anti-CEACAM5 arms to test are diluted in FACS buffer and the concentration range is 30 pM-500 nM. Cells are washed twice with cold FACS buffer and re-incubated for further 15 minutes at 4° C. with a compatible anti-human IgG secondary antibody. Cells are washed twice with cold FACS buffer and resuspended in 300 μl FACS buffer with 1:1500-diluted TOPRO-3 (Invitrogen). Fluorescence is measured using a FACSCalibur™ (BD Biosciences) or a Cytoflex Platform (Beckman Coulter). Dose-response binding curves are fitted using GraphPad Prism8 software. In the same manner, CEACAM1, CEACAM6 and other CEACAMs can be characterized.
(§2) For the bispecific antibodies AB17L3-1/N, AB71L3-1/N, AB72L3-1/N, AB73L3-1/N the MFI measured for binding to CEACAM5 transfected cells was found between 29000 and 41000 (Table 2). In contrast MFI found by using PEAK cells transfected with CEACAM 1,3,4,6,8 were found below 1000 with the only exception of a strong signal for AB72L3-1/N on CEACAM8 transfected cells. When MFI values obtained on transfected cells expressing any given CEACAM are divided by the values obtained on WT PEAK cells, “factors to PEAK WT” can be calculated (Table 3).

The target in the next test is T3, human CEACAM8 (human, UniProt P31997 35-320).
T3 construct: whole, on cells
T3 sequence (looked up): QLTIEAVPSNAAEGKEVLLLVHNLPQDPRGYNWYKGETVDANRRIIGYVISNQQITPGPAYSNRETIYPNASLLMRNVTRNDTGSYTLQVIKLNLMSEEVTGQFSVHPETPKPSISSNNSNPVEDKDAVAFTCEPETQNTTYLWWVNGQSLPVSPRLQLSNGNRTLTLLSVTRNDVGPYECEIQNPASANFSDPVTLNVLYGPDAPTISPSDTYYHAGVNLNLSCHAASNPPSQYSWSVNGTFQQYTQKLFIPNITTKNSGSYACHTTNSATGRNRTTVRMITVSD
As to the kind of experiment: flow cytometry, transfected PEAK cells.
Excerpt: as §1, §2

The target of test [2] is T4, human CEACAM5 (carcinoembryonic antigen, CEA), cell surface (human, UniProt P06731 35-685).
T4 construct: whole, on cells; also called CD66e
T4 sequence (looked up): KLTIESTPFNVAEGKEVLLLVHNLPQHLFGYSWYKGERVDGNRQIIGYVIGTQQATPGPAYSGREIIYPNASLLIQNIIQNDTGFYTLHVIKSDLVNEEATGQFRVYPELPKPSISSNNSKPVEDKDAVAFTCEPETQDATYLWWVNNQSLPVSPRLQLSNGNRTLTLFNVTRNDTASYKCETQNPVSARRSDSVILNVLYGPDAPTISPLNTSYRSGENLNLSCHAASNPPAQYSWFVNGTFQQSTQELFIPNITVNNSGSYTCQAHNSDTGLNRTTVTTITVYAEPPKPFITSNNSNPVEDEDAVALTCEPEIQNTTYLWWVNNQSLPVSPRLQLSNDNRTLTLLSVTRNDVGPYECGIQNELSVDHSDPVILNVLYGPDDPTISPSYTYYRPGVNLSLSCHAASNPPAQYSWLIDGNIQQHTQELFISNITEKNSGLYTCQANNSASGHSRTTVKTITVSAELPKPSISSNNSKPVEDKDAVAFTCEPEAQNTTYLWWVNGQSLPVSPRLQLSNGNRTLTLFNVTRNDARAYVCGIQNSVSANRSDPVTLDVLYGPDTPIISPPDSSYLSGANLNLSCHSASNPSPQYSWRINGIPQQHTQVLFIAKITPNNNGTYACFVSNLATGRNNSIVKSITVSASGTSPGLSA
The experiment in a line: flow cytometry, MKN-45 and/or HPAF-II cells.

Test [3] deals with T1, human CD3ε. The experiment in a line: flow cytometry, primary CD4+ and CD8+ T-cells.

T1 sequence (P07766 23-207): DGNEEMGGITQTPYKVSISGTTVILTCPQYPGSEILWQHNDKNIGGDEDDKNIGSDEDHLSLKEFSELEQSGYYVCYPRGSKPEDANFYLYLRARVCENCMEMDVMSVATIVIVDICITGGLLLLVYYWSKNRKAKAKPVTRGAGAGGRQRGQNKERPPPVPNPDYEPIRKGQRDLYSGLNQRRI

B1: AB17L3-1/N (bispecific antibody, human IgG1, kappa, lambda, L234A L235A)
heavy: EVQLVESGGGLVQPGGSLKLSCAASGFTFNTYAMNWVRQAPGKGLEWVGRIRSKYNNYATYYADSVKDRFTISRDDSKNTAYLQMNSLKTEDTAVYYCVRHGNFGNSYVSWFAYWGQGTLVTVSSASTKGPSVFPLAPSSKSTSGGTAALGCLVKDYFPEPVTVSWNSGALTSGVHTFPAVLQSSGLYSLSSVVTVPSSSLGTQTYICNVNHKPSNTKVDKRVEPKSCDKTHTCPPCPAPEAAGGPSVFLFPPKPKDTLMISRTPEVTCVVVDVSHEDPEVKFNWYVDGVEVHNAKTKPREEQYNSTYRVVSVLTVLHQDWLNGKEYKCKVSNKALAAPIEKTISKAKGQPREPQVYTLPPSREEMTKNQVSLTCLVKGFYPSDIAVEWESNGQPENNYKTTPPVLDSDGSFFLYSKLTVDKSRWQQGNVFSCSVMHEALHNHYTQKSLSLSPG
light 1: EIVLTQSPATLSLSPGERATLSCRASQSVNSNLNWYQQKPGQAPRLLIYHGSNRATGIPARFSGSGSGTDFTLTISSLEPEDFAVYYCQQFDYFKEHNTFGQGTKVEIKRTVAAPSVFIFPPSDEQLKSGTASVVCLLNNFYPREAKVQWKVDNALQSGNSQESVTEQDSKDSTYSLSSTLTLSKADYEKHKVYACEVTHQGLSSPVTKSFNRGEC
light 2: QTVVTQEPSLTVSPGGTVTLTCRSSTGAVTTSNYANWFQQKPGQAPRGLIGGTNKRAPGTPARFSGSLLGGKAALTLSGAQPEDEAEYYCALWYKQRWVFGGGTKLTVLGQPKAAPSVTLFPPSSEELQANKATLVCLISDFYPGAVTVAWKADSSPVKAGVETTTPSKQSNNKYAASSYLSLTPEQWKSHRSYSCQVTHEGSTVEKTVAPTECS
notes: Kappa-lambda body, lead optimization wave 1
On to B1, for which the binding result with human CD3ε [1] is reported as “binds”; with human CEACAM4, “no binding (tested: 10 mcg/ml)”; with human CEACAM8, “no binding (tested: 10 mcg/ml)”. Moreover, the “binding higher than TCB2014 (at 100 nM)” value in test [2] was at least 40%.

B2: AB1L3-1/N (bispecific antibody, human IgG1, kappa, lambda, L234A L235A)
heavy: EVQLVESGGGLVQPGGSLKLSCAASGFTFNTYAMNWVRQAPGKGLEWVGRIRSKYNNYATYYADSVKDRFTISRDDSKNTAYLQMNSLKTEDTAVYYCVRHGNFGNSYVSWFAYWGQGTLVTVSSASTKGPSVFPLAPSSKSTSGGTAALGCLVKDYFPEPVTVSWNSGALTSGVHTFPAVLQSSGLYSLSSVVTVPSSSLGTQTYICNVNHKPSNTKVDKRVEPKSCDKTHTCPPCPAPEAAGGPSVFLFPPKPKDTLMISRTPEVTCVVVDVSHEDPEVKFNWYVDGVEVHNAKTKPREEQYNSTYRVVSVLTVLHQDWLNGKEYKCKVSNKALAAPIEKTISKAKGQPREPQVYTLPPSREEMTKNQVSLTCLVKGFYPSDIAVEWESNGQPENNYKTTPPVLDSDGSFFLYSKLTVDKSRWQQGNVFSCSVMHEALHNHYTQKSLSLSPG
light 1: EIVLTQSPATLSLSPGERATLSCRASQSVNSNLNWYQQKPGQAPRLLIYHGSNRATGIPARFSGSGSGTDFTLTISSLEPEDFAVYYCQQFDLRHEHNTFGQGTKVEIKRTVAAPSVFIFPPSDEQLKSGTASVVCLLNNFYPREAKVQWKVDNALQSGNSQESVTEQDSKDSTYSLSSTLTLSKADYEKHKVYACEVTHQGLSSPVTKSFNRGEC
light 2: QTVVTQEPSLTVSPGGTVTLTCRSSTGAVTTSNYANWFQQKPGQAPRGLIGGTNKRAPGTPARFSGSLLGGKAALTLSGAQPEDEAEYYCALWYKQRWVFGGGTKLTVLGQPKAAPSVTLFPPSSEELQANKATLVCLISDFYPGAVTVAWKADSSPVKAGVETTTPSKQSNNKYAASSYLSLTPEQWKSHRSYSCQVTHEGSTVEKTVAPTECS
notes: Kappa-lambda body: common heavy chain (hIgG1 L234A+L235A+P329A), kappa CEA light chain AB1, lambda CD3 light chain L3-1 (1A4); also called parental KL bispecific antibody
On to B2, for which the binding result in the test with human CEACAM4 and with human CEACAM8 was “no binding (tested: 10 mcg/ml)” each time.

B3: AB72L3-1/N (bispecific antibody, human IgG1, kappa, lambda, L234A L235A)
heavy: EVQLVESGGGLVQPGGSLKLSCAASGFTFNTYAMNWVRQAPGKGLEWVGRIRSKYNNYATYYADSVKDRFTISRDDSKNTAYLQMNSLKTEDTAVYYCVRHGNFGNSYVSWFAYWGQGTLVTVSSASTKGPSVFPLAPSSKSTSGGTAALGCLVKDYFPEPVTVSWNSGALTSGVHTFPAVLQSSGLYSLSSVVTVPSSSLGTQTYICNVNHKPSNTKVDKRVEPKSCDKTHTCPPCPAPEAAGGPSVFLFPPKPKDTLMISRTPEVTCVVVDVSHEDPEVKFNWYVDGVEVHNAKTKPREEQYNSTYRVVSVLTVLHQDWLNGKEYKCKVSNKALAAPIEKTISKAKGQPREPQVYTLPPSREEMTKNQVSLTCLVKGFYPSDIAVEWESNGQPENNYKTTPPVLDSDGSFFLYSKLTVDKSRWQQGNVFSCSVMHEALHNHYTQKSLSLSPG
light 1: EIVLTQSPATLSLSPGERATLSCRASQSVNSNLNWYQQKPGQAPRLLIYHSTNRPRGIPARFSGSGSGTDFTLTISSLEPEDFAVYYCQQFDYFKEYNTFGQGTKVEIKRTVAAPSVFIFPPSDEQLKSGTASVVCLLNNFYPREAKVQWKVDNALQSGNSQESVTEQDSKDSTYSLSSTLTLSKADYEKHKVYACEVTHQGLSSPVTKSFNRGEC
light 2: QTVVTQEPSLTVSPGGTVTLTCRSSTGAVTTSNYANWFQQKPGQAPRGLIGGTNKRAPGTPARFSGSLLGGKAALTLSGAQPEDEAEYYCALWYKQRWVFGGGTKLTVLGQPKAAPSVTLFPPSSEELQANKATLVCLISDFYPGAVTVAWKADSSPVKAGVETTTPSKQSNNKYAASSYLSLTPEQWKSHRSYSCQVTHEGSTVEKTVAPTECS
notes: Kappa-lambda body, lead optimization wave 2
As for B3, the binding result with human CEACAM4 was “no binding (tested: 10 mcg/ml)”; with human CD3ε [3], “binds”.
